Assay results reported in doi:10.1101/2023.10.29.564595, “The N-terminal region of DNMT3A combines multiple chromatin reading motifs to guide recruitment”.

Target: DNMT3A1 1-427 R181A/R183A (human, UniProt Q9Y6K1 1-427, R181A;R183A)
Assay: EMSA; only marginally affected; EMSA: 15 mM HEPES pH 7.5, 75 mM NaCl, 0.05% Triton X-100, 0.05 mg/mL BSA, 10% glycerol, 1 mM DTT, 0.5 mg/mL salmon sperm DNA (nucleosomes), 2.4 nM tracer, 1 h on ice; full-length complex: 17.5 mM HEPES pH 8, 150 mM NaCl, 1.5 mM MgCl2, 2.5% glycerol, 1 mM DTT, 0.1 mg/mL BSA, on ice
Conditions: protein: recombinant; tags: His-MBP; label: 5' 6-FAM; blunt

DNMT3A1 1-427 R181A/R183A, sequence (Q9Y6K1 1-427 R181A/R183A): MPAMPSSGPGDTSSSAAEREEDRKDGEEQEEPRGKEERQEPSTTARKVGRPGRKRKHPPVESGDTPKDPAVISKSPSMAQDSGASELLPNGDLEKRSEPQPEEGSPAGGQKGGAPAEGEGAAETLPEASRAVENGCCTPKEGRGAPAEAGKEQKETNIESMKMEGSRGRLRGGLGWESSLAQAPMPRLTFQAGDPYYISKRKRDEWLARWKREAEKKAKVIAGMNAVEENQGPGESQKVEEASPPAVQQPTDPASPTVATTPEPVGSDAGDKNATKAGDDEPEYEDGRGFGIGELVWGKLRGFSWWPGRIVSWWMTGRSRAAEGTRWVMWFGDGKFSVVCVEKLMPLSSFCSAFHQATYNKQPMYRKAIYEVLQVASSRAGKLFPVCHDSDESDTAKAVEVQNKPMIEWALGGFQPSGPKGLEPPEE

B1: free 175 bp Widom601 DNA (dsDNA)
DNA 1: TATACGCGGCCGCCCTGGAGAATCCCGGTGCCGAGGCCGCTCAATTGGTCGTAGACAGCTCTAGCACCGCTTAAACGCACGTACGCGCTGTCCCCCGCGTTTTAACCGCCAAGGGGATTACTCCCTAGTCTCCAGGCACGTGTCAGATATATACATCCTGTGCAATGTGTTCCAT
DNA 2: ATGGAACACATTGCACAGGATGTATATATCTGACACGTGCCTGGAGACTAGGGAGTAATCCCCTTGGCGGTTAAAACGCGGGGGACAGCGCGTACGTGCGTTTAAGCGGTGCTAGAGCTGTCTACGACCAATTGAGCGGCCTCGGCACCGGGATTCTCCAGGGCGGCCGCGTATA
Q: Does B1 bind?
A: Result: binds
